This experiment concerns the target Ankyrin and SOCS Box-containing protein-10 (Asb10), rat, FLAG-tagged, expressed from adenovirus (Ad-Asb10) (rat). As to the kind of experiment: co-IP; NRVMs overexpressing Asb10; lysates incubated with antibody and Protein A&G magnet beads overnight at 4 °C, washed 5 times with 0.5% PBST; western blot of candidate interacting proteins (Fig. 3C).

From publication PMC12095639 come the findings set out here.

Turning to “HSC70, endogenous in NRVMs (from UniProt P63018 1-646) (natural protein)”, the fold weaker binding than HSP70 with Asb10 was determined as 10 fold.
